1 substance from patent publication US20040019188A1, “Targeting through integrins” (priority 2000, published 2004) can be followed below.

The assay has as its target β1 integrins on HEp-2 cells.

RGDS peptide (Gibco) displayed an ID30 of 170 µM.
